{"source": "paper PMC2935870", "molecular_target": "pGBKT7-53", "assay": "two-hybrid"}
{"substance": "pGADT7-T (domain or fragment)", "values": [{"measurement": "α-galactosidase activity", "value": 22}]}
